Source: patent US20070169210A1 (EMORY UNIVERSITY, published 2007)
Values belong to the molecule of their own block, whether it stands above or below them.

How the values were obtained:
[1] = target: SED1, endogenous, of mouse sperm and male reproductive tract (mouse) (UniProt P21956); assay: cell-based or functional assay
[2] = target: zona pellucida of unfertilized (ovulated) oocytes; assay: cell-based or functional assay
[3] = target: T1, SED1 expressed in COS-7 cells (SED1-COS), on secreted membrane vesicles (mouse, UniProt P21956 23-463); assay: blot overlay, zona glycoproteins resolved under reducing conditions, detected with anti-SED1
T1 construct: Cloned into pcDNA3.1 D/V5-His-Topo; Used as SED1-enriched membrane vesicles released by COS-7 cells; also called COS-expressed SED1
T1 sequence: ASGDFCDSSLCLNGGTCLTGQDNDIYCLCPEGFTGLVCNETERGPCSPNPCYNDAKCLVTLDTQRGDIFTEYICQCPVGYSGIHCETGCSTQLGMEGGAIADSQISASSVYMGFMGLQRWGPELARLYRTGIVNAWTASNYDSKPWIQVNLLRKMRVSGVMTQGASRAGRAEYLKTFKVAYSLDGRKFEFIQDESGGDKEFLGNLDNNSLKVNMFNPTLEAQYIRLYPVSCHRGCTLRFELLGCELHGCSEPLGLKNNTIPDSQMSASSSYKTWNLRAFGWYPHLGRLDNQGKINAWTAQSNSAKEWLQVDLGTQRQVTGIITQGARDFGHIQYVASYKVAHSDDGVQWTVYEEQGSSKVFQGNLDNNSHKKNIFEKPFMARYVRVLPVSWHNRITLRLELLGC
Procedure: (§1) The purification of zona pellucida glycoproteins was done as published elsewhere (Miller et al., 1992). The proteins were resolved on 10% polyacrylamide gels and transferred onto Immobilon-P membranes (Millipore) as above. The membranes were blocked in TBST containing 2% BSA for 1 hr at 25° C. Subsequently, membranes were incubated with either (His)₆-SED1, biotinylated (His)₆-SED1, SED1 prepared from COS-7 cells, or biotinylated WGA-lectin (positive control) for 1 hr at 25° C. and washed three times for 10 min in TBST, followed by incubation with either rabbit anti-SED1 and goat anti-rabbit-HRP, or Streptavidin-HRP (Zymed). The membranes were washed, developed, and exposed to film as above.
To determine which of the three zona glycoproteins could serve as the putative ligand for SED1, […]. When zona glycoproteins were resolved under reducing conditions, SED1 bound to glycoproteins comigrating as ZP1/ZP2 as well as ZP3 (FIG. 3D). Similar results were achieved using either biotinylated (His)₆-SED1 (D-SED1) detected by Streptavidin-HRP/ECL or recombinant (His)₆-SED1 (rSED1) detected by rabbit-anti-SED1 IgG and HRP-conjugated secondary antibodies (FIG. 3D). […]

[4] = target: T2, ZP1 zona pellucida glycoprotein (murine, UniProt Q62005 21-546); assay: blot overlay of zona glycoproteins resolved under nonreducing conditions, biotinylated (His)6-SED1, streptavidin-HRP
T2 construct: Native glycoprotein on a blot, non-reducing conditions
T2 sequence (looked up): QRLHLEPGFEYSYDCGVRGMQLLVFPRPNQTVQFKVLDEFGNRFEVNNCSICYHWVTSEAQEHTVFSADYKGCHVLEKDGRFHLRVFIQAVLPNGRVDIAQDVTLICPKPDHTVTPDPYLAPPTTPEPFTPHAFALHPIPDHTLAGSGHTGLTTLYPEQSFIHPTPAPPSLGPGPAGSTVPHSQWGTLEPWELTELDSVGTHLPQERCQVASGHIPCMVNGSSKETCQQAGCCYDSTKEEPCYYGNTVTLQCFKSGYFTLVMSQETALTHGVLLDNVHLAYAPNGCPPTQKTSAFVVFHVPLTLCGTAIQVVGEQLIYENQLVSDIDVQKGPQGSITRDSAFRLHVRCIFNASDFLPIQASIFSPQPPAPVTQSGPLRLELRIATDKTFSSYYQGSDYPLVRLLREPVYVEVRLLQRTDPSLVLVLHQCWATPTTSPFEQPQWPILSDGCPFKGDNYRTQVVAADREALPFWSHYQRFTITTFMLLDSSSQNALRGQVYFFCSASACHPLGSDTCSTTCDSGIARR
Procedure: as §1

Molecule: (His)6-SED1 truncated fusion protein EEC (both EGF repeats, one discoidin/C domain)
- binding of GalT I null sperm to the zona, % of control (% of control at 3.8 µg/ml) [2]: 21

B1: SED1, endogenous, of mouse sperm and male reproductive tract (protein)
chain: ASGDFCDSSLCLNGGTCLTGQDNDIYCLCPEGFTGLVCNETERGPCSPNPCYNDAKCLVTLDTQRGDIFTEYICQCPVGYSGIHCETGCSTQLGMEGGAIADSQISASSVYMGFMGLQRWGPELARLYRTGIVNAWTASNYDSKPWIQVNLLRKMRVSGVMTQGASRAGRAEYLKTFKVAYSLDGRKFEFIQDESGGDKEFLGNLDNNSLKVNMFNPTLEAQYIRLYPVSCHRGCTLRFELLGCELHGCSEPLGLKNNTIPDSQMSASSSYKTWNLRAFGWYPHLGRLDNQGKINAWTAQSNSAKEWLQVDLGTQRQVTGIITQGARDFGHIQYVASYKVAHSDDGVQWTVYEEQGSSKVFQGNLDNNSHKKNIFEKPFMARYVRVLPVSWHNRITLRLELLGC
- sperm bound per egg, SED1 null sperm [2]: 1.45 sperm/egg
- sperm bound per egg, wild-type sperm [2]: 11.2 sperm/egg

B2: ZP3 zona pellucida glycoprotein (other, murine, UniProt P10761 23-351, looked up)
chain: QTLWLLPGGTPTPVGSSSPVKVECLEAELVVTVSRDLFGTGKLVQPGDLTLGSEGCQPRVSVDTDVVRFNAQLHECSSRVQMTKDALVYSTFLLHDPRPVSGLSILRTNRVEVPIECRYPRQGNVSSHPIQPTWVPFRATVSSEEKLAFSLRLMEENWNTEKSAPTFHLGEVAHLQAEVQTGSHLPLQLFVDHCVATPSPLPDPNSSPYHFIVDFHGCLVDGLSESFSAFQVPRPRPETLQFTVDVFHFANSSRNTLYITCHLKVAPANQIPDKLNKACSFNKTSQSWLPVEGDADICDCCSHGNCSNSSSSQFQIHGPRQWSKLVSRN
notes: Native glycoprotein on a blot, reducing and non-reducing conditions
- binding result [3]: binds

Other lines, results leading:

- binding of GalT I null sperm to the zona, % of control (% of control binding at 200 µg/ml) [1]: 91
Molecule: preimmune rabbit serum / preimmune IgG (antibody)

- binding result [4]: no binding
- binding of GalT I null sperm to the zona, % of control (% of control at 6 µg/ml) [2]: 27
B3: (His)6-SED1 fusion protein (full-length recombinant mouse SED1 expressed in E. coli) (other)
chain: HHHHHHASGDFCDSSLCLNGGTCLTGQDNDIYCLCPEGFTGLVCNETERGPCSPNPCYNDAKCLVTLDTQRGDIFTEYICQCPVGYSGIHCETGCSTQLGMEGGAIADSQISASSVYMGFMGLQRWGPELARLYRTGIVNAWTASNYDSKPWIQVNLLRKMRVSGVMTQGASRAGRAEYLKTFKVAYSLDGRKFEFIQDESGGDKEFLGNLDNNSLKVNMFNPTLEAQYIRLYPVSCHRGCTLRFELLGCELHGCSEPLGLKNNTIPDSQMSASSSYKTWNLRAFGWYPHLGRLDNQGKINAWTAQSNSAKEWLQVDLGTQRQVTGIITQGARDFGHIQYVASYKVAHSDDGVQWTVYEEQGSSKVFQGNLDNNSHKKNIFEKPFMARYVRVLPVSWHNRITLRLELLGC
modifications: biotinylated with Sulfo-NHS-LC-LC-Biotin in the bead assays and in the streptavidin-detected blot overlays
notes: also called rSED1; recombinant SED1
